Data on two proteins can be found in patent USRE50957E1, “Molecular rheostat for cofactor balance” (The Regents of the University of California, priority 2016, dated 2026).

Changes are numbered by the printed parent chain. In names and notes the source's numbering stands.

Substrate in series [1]: NC(=O)c1ccc[n+]([C@@H]2O[C@H](COP(=O)([O-])OP(=O)(O)OC[C@H]3O[C@@H](n4cnc5c(N)ncnc54)[C@H](OP(=O)(O)O)[C@@H]3O)[C@@H](O)[C@H]2O)c1
Briefly: purified protein, by the assay type. The settings on record: other: gapDH WT, cofactor, 50 mM tris pH 7.5, 340 nm.

Substrate in series [2]: NC(=O)c1ccc[n+]([C@@H]2O[C@H](COP(=O)([O-])OP(=O)(O)OC[C@H]3O[C@@H](n4cnc5c(N)ncnc54)[C@H](OP(=O)(O)O)[C@@H]3O)[C@@H](O)[C@H]2O)c1
Briefly: Kinetics and cofactor specificity of triple mutant mGap (mGapDH). In kind it is biochemical, G. stearothermophilus ATCC12980. The settings on record: other: mGapDH, cofactor, 50 mM tris pH 7.5, 340 nm. The procedure: Enzyme activity and optimization. All of the enzymes used in this work were assayed. The enzymes were assayed in 50 mM tris buffer pH 7.5, 5 mM MgCl, and 5 mM KCl which mirrors the final reaction conditions. The activity of NAD(P)H producing or consuming reactions were monitored at 340 nm. The activity of ATP consuming enzymes were monitored using a coupled assay with Zwf and NADP^+ at 340 nm.
To implement the “molecular rheostat” module, GapDH enzyme was engineered that efficiently uses NADP^+. […] Although the cofactor specificity of GsGap has adjusted before by sequence-based design, the mutant only slightly preferred NADP^+ over NAD^+. To more strongly flip the cofactor specificity of GsGap the crystal structure was examined and basic residues introduced into the loop region proximate to the 2′OH of NAD′ that may help stabilize binding of a 2′ phosphate in NADP^+. A series of mutations were made altering residues D34, L35, and T36 of SEQ ID NO:6. The kinetics and specificity of the best enzyme, a D34A/L35R/T36K triple mutant (herein referred to as mGap), were obtained.

B1: G. stearothermophilus glyceraldehyde-3-phosphate dehydrogenase (GsGap, gapDH WT), wild type, SEQ ID NO:6 (Geobacillus stearothermophilus) (protein)
chain: MAVKVGINGFGRIGRNVFRAALKNPDIEVVAVNDLTDANTLAHLLKYDSVHGRLDAEVSVNGNNLVVNGKEIIVKAERDPENLAWGEIGVDIVVESTGRFTKREDAAKHLEAGAKKVIISAPAKNEDITIVMGVNQDKYDPKAHHVISNASCTTNCLAPFAKVLHEQFGIVRGMMTTVHSYTNDQRILDLPHKDLRRARAAAESIIPTTTGAAKAVALVLPELKGKLNGMAMRVPTPNVSVVDLVAELEKEVTVEEVNAALKAAAEGELKGILAYSEEPLVSRDYNGSTVSSTIDALSTMVIDGKMVKVVSWYDNETGYSHRVVDLAAYIASKGL
Broadly, the Km is the substrate concentration at which the rate is half of its maximum. On to B1, for which the Michaelis-Menten constant (Km) in series [1] was determined as 1500 ± 500 µM.

B2: G. stearothermophilus glyceraldehyde-3-phosphate dehydrogenase (GsGap) mutant mGapDH (mGap, gapDH M6), D34A/L35R/T36K relative to SEQ ID NO:6 (Geobacillus … (protein)
chain: B1 chain with D34A, L35R, T36K
B2: the Km in series [2] is 300 ± 40 µM.
